Reference: paper PMC3464217 (2012)

Legend:
Assay in all cases: SPR
recombinant gp160 [1] = target: T1, recombinant gp160 (HIV (IIIB or MN/LAI))
recombinant gp160 [2] = target: T1, recombinant gp160; remark: listed apart in the source
recombinant gp160 [3] = target: T1, recombinant gp160; remark: listed apart in the source

B1: 7B2 (antibody, V domains shown)
VH: QVQLVQSGGGVFKPGGSLRLSCEASGFTFTEYYMTWVRQAPGKGLEWLAYISKNGEYSKYSPSSNGRFTISRDNAKNSVFLQLDRLSADDTAVYYCARADGLTYFSELLQYIFDLWGQGARVTVSS
VL: DIVMTQSPDSLAVSPGERATIHCKSSQTLLYSSNNRHSIAWYQQRPGQPPKLLLYWASMRLSGVPDRFSGSGSGTDFTLTINNLQAEDVAIYYCHQYSSHPPTFGHGTRVELR
koff (recombinant gp160 [1]): 4.9e-05 s⁻¹ | Kd (recombinant gp160 [2]): 0.31 nM | Ka (recombinant gp160 [3]): 3.4e+09 M⁻¹

B2: HY (antibody, V domains shown)
VH: QVQLEQSGAEVKKPGASVKVSCQASGYRFSHFTVHWVRQAPGQRFEWMGWINPYNGNKEFSAKFQDRVTFTADTSANTAYMELRSLRSADTAVYYCARVGEWGWDDSPYDNYYMDVWGKGTTVIVSS
VL: EIVLTQSPGTLSLSPGERATFSCRSSHSIRSRRVAWYQHKPGQAPRLVIHGVSNRASGISDRFSGSGSGTDFTLTITRVEPEDFALYYCQVYGASSYTFGQGTKLERK
koff (recombinant gp160 [1]): 0.018 s⁻¹ | Kd (recombinant gp160 [2]): 370 nM | Ka (recombinant gp160 [3]): 2.7e+06 M⁻¹
